Reference: patent US9701739B2, “Monoclonal antibody having immunosuppressive activity or antigen binding fragment thereof” (Josai University Corporation, priority 2010, dated 2017)

Legend:
[1] = test system: T cells from a Balb/c mouse (mitochondria ATP synthase knocked down or not); assay: MLR test with T cells with or without mitochondria ATP synthase knock-down by siRNA; type: cell-based
Protocol: First, T cells from a Balb/c mouse having mitochondria ATP synthase knocked down were obtained using Accell siRNA kit from Thermo Fisher Scientific Inc.
Next, according to the method in Test Example 2, MLR tests were performed using Example 1 (SSV mAb) as a test substance using the T cells obtained.
In the test, Isotype IgG1 (eBioscience) was used as a control reagent. In addition, a similar test was performed using T cells from a mouse not having the ATP synthase knocked down as a control test.

[2] = test system: Spleen lymphocytes from a naive DA rat (responsive cells) with mitomycin-C treated LEW rat spleen lymphocytes; assay: Mixed lymphocyte reaction (MLR) test, BrdU incorporation; type: cell-based
Protocol: Spleen lymphocytes from a naive DA rat (responsive cells) and spleen lymphocytes from a LEW rat treated with mitomycin-C (Kyowa Hakko Kogyo Co., Ltd.) were used. The responsive cells were adjusted to 5×10^5 cells/mL with 10% FCS—RPMI culture medium, and the stimulated cells were adjusted to 8×10^6 cells/mL with 10% FCS—RPMI culture medium. After plating the responsive cell suspension and the stimulated cell suspension in an amount of 100 μL to a 96 well round-bottom plate (Nunc Brand Products) respectively, the monoclonal antibody 16G9 mAb of Reference Example 1 (0.1, 2, 4, or 6 μg/mL/well) or the monoclonal antibody SSVmAb of Example 1 (4 μg/mL/well) was added at the start of mixed culture, and cultured for 3.5 days or longer under the conditions of 37° C., 5% CO2/95% air. In addition, an immunosuppressive agent tacrolimus (FK506: Fujisawa Pharmaceutical Co., Ltd., 1 nM/well) was added as a positive control. Further, 10 μL bromo deoxyuridine (BrdU) was added 15 hours before the end of culture. Then the proliferation potential of the cells treated with the immunosuppressive agent was measured using BrdU labeling & detection kit III (Roche Diagnostics K.K.) using the amount of BrdU incorporated into cellular DNA as an indicator. The proliferation potential was used as an indicator for a level of immunosuppression.

[3] = test system: histone H1, H2A, H2B, H3 or H4; assay: ELISA determination of the affinity for histone H1 and core histone; type: binding; details: 5 μg/mL antibody, FIGS. 2 and 3
Protocol: For an antigen, histone H1, which is an antigen of Reference Example 1 (16G9 mAb), and core histone H2A, H2B, H3 and H4, which are histone H1 antigen analogs, were selected.
The Affinities between histone H1 or core histone and SSVmAb were determined by ELISA.
A 96 well microplate was coated with histone H1, H2A, H2B, H3 or H4. Each histone used was dissolved in 100 mM sodium carbonate buffer (pH 9.3). The plate was washed with PBS-tween 20 (0.05%), and blocked with 3% skim milk and 1% BSA for 1 hour. To each well, 5 μg/mL SSVmAb was added, and incubated for 1 hour. Bound SSVmAb was detected using peroxidase (HRP) conjugated anti mouse IgG1Ab (SIGMA), and incubated for 1 hour. Bound SSVmAb was detected using the ABTS [2,2′-azino-bis(3-ethylbenzothiazoline-sulfonic acid)] substrate solution, and absorbance at 405 nm was measured using Multiskan Ascent (Thermo Fisher Scientific Inc., Waltham, Mass.).

[4] = test system: CD3 positive T cells; assay: Reactivity of the monoclonal antibody with T cells by flow cytometry (FACS); type: cell-based, C57BL/6 mouse; details: unstimulated T cells, 10 μl of 100 μg/ml primary antibody, student t-test, FIG. 5
Protocol: Using the following approach, spleen was removed from a C57BL/6 mouse (5 weeks old, female, CHARLES RIVER LABORATORIES JAPAN, INC.) to prepare whole splenic cells.
First, in a 5 ml culture dish (BD Bioscience FALCON 351007) into which 5 ml RPMI 1640 culture medium (Sigma-Aldrich, R-8758) was transferred, spleen was disentangled well with scissors for dissection and forceps to suspend the splenic cells, which were then transferred to a 15 ml centrifuge tube (BD Bioscience FALCON 352096). Then, the 5 ml dish was washed several times with phosphate-buffered saline (PBS, Invitrogen, 20012-027), and these were also added to the foregoing cell suspension and allowed to stand, and then the supernatant was collected in another 15 ml centrifuge tube. In addition, 5 ml RPMI 1640 culture medium was also added to the residual insoluble spleen tissue again and allowed to stand, and then only the supernatant was collected, which was combined with the above-mentioned cell suspension to perform centrifugation at 1,500 rpm for 5 min. To the collected cells, added was 2 ml lysis buffer (150 mM NH4Cl/15 mM NaHCO3/0.1 mM EDTA-Na2, pH 7.3) and hemolyzed by tapping, and then 10 ml PBS was added. After washed 3 times by centrifugation at 1,500 rpm for 5 min, whole splenic cells were obtained. […]
The reactivity of the above unstimulated with 16G9 mAb or SSV mAb was analyzed by flow cytometry (FACS). […]

B1: SSVmAb: IgG1 monoclonal antibody produced by Mouse-Mouse hybridoma SSV-C 93-3 (NITE BP-972), raised against … peptide-KLH conjugate (antibody, V domains shown)
VH: EIQLQQSGAELVKPGASVKISCKASGYSFTGYNMNWVKQSHGKSLEWIGNINPYYGSTSYNQKFKGKATLTVDKSSSTAYMQLNSLTSEDSAVYYCARSPYYSNYWRYFDYWGQGTTLTVSS
VL: QIVLSQSPAILSASPGEKVTMTCRASSSVSYMHWYQQKPGSSPKPWIYATSNLASGVPARFSGSGSGTSYSLTISRVEAEDAATYYCQQWSSNPWTFGGGTKLEIK
notes: IgG1 monoclonal antibody produced by Mouse-Mouse hybridoma SSV-C 93-3 (NITE BP-972), raised against … peptide-KLH conjugate
For B1, the “cell growth inhibition compared with Isotype IgG1” value ([1]; ATP synthase knocked down, FIG. 6B) was “no significant difference”, the “cell growth inhibition compared with Isotype IgG1” value ([1]; ATP synthase not knocked down, FIG. 6A) was “significantly inhibited cell growth” and the “absorbance which indicates the amount of incorporated BrdU” value ([2]; 4 μg/mL/well, mean±S.E., cultured 3.5 days or longer, FIG. 4) was 0.552±0.114. The “absorbance (incorporated BrdU) compared with reference antibody and tacrolimus” value ([2]; SSVmAb 4 μg/mL/well, 16G9 mAb 0.1, 2, 4 or 6 μg/mL/well, FK506 1 nM/well) was “lower than that of Reference Example 1 (16G9 mAb) and tacrolimus (FK506)”, the “mean absorbance of Example 1 relative to that of Reference Example 1” value ([2]; same amount added (4 μg/mL/well)) was “about 41%” and the “affinity for histone H2A, H2B, H3 or H4 compared with affinity for histone H1 (absorbance at 405 nm)” value [3] was “higher than the affinity for histone H1”. For the same molecule, the “reactivity with CD3 positive T cells” value [4] was “comparative reactivity”.
